Measured values from publication PMC8001920, “Selecting Subpopulations of High-Quality Protein Conformers among Conformational Mixtures of Recombinant Bovine MMP-9 Solubilized from Inclusion Bodies” (International Journal of Molecular Sciences, 2021).

Biological target: the molecule itself
Test: SDS-PAGE and Western blot; IMAC peaks of solubilized MMP-9 from L. lactis, mixed 1:1 with Laemmli buffer, boiled at 90 °C for 10 min, run with 0.1% SDS, detected with anti-His-tag monoclonal antibody; bands of high molecular weight

B1: recombinant bovine MMP-9 fragment (Phe107-Pro449), C-terminally His-tagged, produced in L. lactis (domain or fragment)
chain: not shown
notes: matrix metalloproteinase 9 (MMP-9), bovine, fragment Phe107-Pro449 of NCBI NM_174744.2; The same fragment was also made in Clearcoli BL21(DE3) (pETDuet); no result on self-association is told for that material; also called matrix metalloproteinase 9; solubilized MMP-9; not shown: 6His-tag, C-terminal, kept
  binding result: binds
